Target: BphP1-iB(GFP) (Rhodopseudomonas palustris | not stated)
Assay: light-induced relocalisation in live cells (epifluorescence microscopy); HeLa co-expressing BphP1-iB(GFP), mVenus-CAAX and mCherry-QPAS1; darkness against 740 nm light (1 mW cm^-2), 37 °C; mCherry signal moves from cytoplasm to plasma membrane

half-time of the relocalisation from cytoplasm to plasma membrane: 33.6 s
Substance: mCherry-QPAS1
